Measurements taken from US20230002472A1 (NEURACLE GENETICS, published 2023).

Experiments:
[1] = target: T1, tetrameric human PD-L1 (PD-L1-streptavidin-His tag) (human, UniProt Q9NZQ7 19-238, Alexa-488 label (labelled form used in Example 3 ELISA and in all flow cytometry)); assay: ELISA, PD-1 protein coated at 200 ng/well, PD-L1 tetramer, anti-streptavidin-HRP
T1 construct: range 19-238; Expressed in HEK293F, purified on Ni-NTA; both are kept as one molecule; also called PD-L1 tetramer; tetrameric PD-L1-streptavidin; not shown: GS linker between PD-L1 and streptavidin; streptavidin fused at the C-terminal of PD-L1 to induce tetramerization; His tag

[2] = target: T1, tetrameric human PD-L1 …; assay: flow cytometry of E. coli spheroplasts, 12.5 nM tetrameric PD-L1-Alexa488
[3] = target: T1, tetrameric human PD-L1 …; assay: flow cytometry of E. coli spheroplasts with tetrameric PD-L1-Alexa488

T1 sequence (Q9NZQ7 19-238): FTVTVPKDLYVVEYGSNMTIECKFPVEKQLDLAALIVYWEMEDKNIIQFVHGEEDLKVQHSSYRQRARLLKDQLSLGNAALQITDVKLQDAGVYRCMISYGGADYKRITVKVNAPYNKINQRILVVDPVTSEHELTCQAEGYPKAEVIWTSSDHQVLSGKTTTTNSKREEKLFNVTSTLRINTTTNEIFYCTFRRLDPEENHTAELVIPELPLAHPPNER

Row | binding result [2] | binding result [3] | Binder | further results
1 | – | – | GPD1-CKJ 49: glycosylated form of CKJ 49 (PD1 CKJ 49-His tag, expressed in HEK293F) (receptor, Soluble, glycosylated, purified on Ni-NTA; coated on the ELISA plate; also called pMaz-PD1 CKJ 49-His tag; not shown: His tag) LDSPDRPWNPPTLSPALLVVTEGDDATFTCSFSNTSESFVLNWYRMSPSNQTDKLAAFPEDRSQPGQDSRFRVTQLPNGRDFHMSVVRARRSDSGTYLCGAISLAPKAQIKESLRAELRVTERRAEVPTAHPSPSPKPAGQFQ | binding result [1]: binds
2 | binds | – | PD-1 variant No. 55 (CKJ 55), N25D/C69S/N92S/A101V, displayed on E. coli (receptor, not shown: NlpA signal peptide / inner membrane anchor of the pMopac12-NlpA-FLAG vector; FLAG tag) LDSPDRPWNPPTFSPALLVVTEGDDATFTCSFSNTSESFVLNWYRMSPSNQTDKLAAFPEDRSQPGQDSRFRVTQLPNGRDFHMSVVRARRSDSGTYLCGVISLAPKAQIKESLRAELRVTERRAEVPTAHPSPSPRPAGQFQ | –
3 | binds | – | PD-1 variant No. 46 (CKJ 46), S36P/C69S/L114P/P132L, displayed on E. coli (receptor, not shown: NlpA signal peptide / inner membrane anchor of the pMopac12-NlpA-FLAG vector; FLAG tag) LDSPDRPWNPPTFSPALLVVTEGDNATFTCSFSNTPESFVLNWYRMSPSNQTDKLAAFPEDRSQPGQDSRFRVTQLPNGRDFHMSVVRARRNDSGTYLCGAISLAPKAQIKESPRAELRVTERRAEVPTAHLSPSPRPAGQFQ | –
4 | binds | – | PD-1 variant CKJ 41T, S36P/C69T/L114P, displayed on E. coli (receptor, also called APD1-CKJ 41T; pMopac12-NIpA-PD-1 CKJ 41T-FLAG; not shown: NlpA signal peptide / inner membrane anchor of the pMopac12-NlpA-FLAG vector; FLAG tag) LDSPDRPWNPPTFSPALLVVTEGDNATFTCSFSNTPESFVLNWYRMSPSNQTDKLAAFPEDRSQPGQDTRFRVTQLPNGRDFHMSVVRARRNDSGTYLCGAISLAPKAQIKESPRAELRVTERRAEVPTAHPSPSPRPAGQFQ | –
5 | – | binds | PD-1 variant CKJ 41Y, S36P/C69Y/L114P, displayed on E. coli (receptor, Made by QuikChange PCR on CKJ 41; not shown: NlpA signal peptide / inner membrane anchor of the pMopac12-NlpA-FLAG vector; FLAG tag) LDSPDRPWNPPTFSPALLVVTEGDNATFTCSFSNTPESFVLNWYRMSPSNQTDKLAAFPEDRSQPGQDYRFRVTQLPNGRDFHMSVVRARRNDSGTYLCGAISLAPKAQIKESPRAELRVTERRAEVPTAHPSPSPRPAGQFQ | –
6 | – | binds | PD-1 variant CKJ 41A, S36P/C69A/L114P, displayed on E. coli (receptor, Made by QuikChange PCR on CKJ 41; not shown: NlpA signal peptide / inner membrane anchor of the pMopac12-NlpA-FLAG vector; FLAG tag) LDSPDRPWNPPTFSPALLVVTEGDNATFTCSFSNTPESFVLNWYRMSPSNQTDKLAAFPEDRSQPGQDARFRVTQLPNGRDFHMSVVRARRNDSGTYLCGAISLAPKAQIKESPRAELRVTERRAEVPTAHPSPSPRPAGQFQ | –
7 | binds | – | PD-1 variant No. 56 (CKJ 56), S36P/C69S/N92K/L114P/H131R, displayed on E. coli (receptor, not shown: NlpA signal peptide / inner membrane anchor of the pMopac12-NlpA-FLAG vector; FLAG tag) LDSPDRPWNPPTFSPALLVVTEGDNATFTCSFSNTPESFVLNWYRMSPSNQTDKLAAFPEDRSQPGQDSRFRVTQLPNGRDFHMSVVRARRKDSGTYLCGAISLAPKAQIKESPRAELRVTERRAEVPTARPSPSPRPAGQFQ | –
8 | binds | – | PD-1 variant No. 45 (CKJ 45), S36P/C69S/K107N/L114P/F142L, displayed on E. coli (receptor, not shown: NlpA signal peptide / inner membrane anchor of the pMopac12-NlpA-FLAG vector; FLAG tag) LDSPDRPWNPPTFSPALLVVTEGDNATFTCSFSNTPESFVLNWYRMSPSNQTDKLAAFPEDRSQPGQDSRFRVTQLPNGRDFHMSVVRARRNDSGTYLCGAISLAPNAQIKESPRAELRVTERRAEVPTAHPSPSPRPAGQLQ | –
9 | – | binds | PD-1 variant JY101, N1S/F13I/L17M/S36P/M46I/C69T/G79R/G100V/L114P/A139L, displayed on E. coli (receptor, From the secondary library on CKJ 41T; also called APD1-JY 101; not shown: NlpA signal peptide / inner membrane anchor of the pMopac12-NlpA-FLAG vector; FLAG tag) SDSPDRPWNPPTISPAMLVVTEGDNATFTCSFSNTPESFVLNWYRISPSNQTDKLAAFPEDRSQPGQDTRFRVTQLPNRRDFHMSVVRARRNDSGTYLCVAISLAPKAQIKESPRAELRVTERRAEVPTAHPSPSPRPLGQFQ | –
10 | binds | – | PD-1 variant No. 52 (CKJ 52), F13I/M46I/C69Y, displayed on E. coli (receptor, not shown: NlpA signal peptide / inner membrane anchor of the pMopac12-NlpA-FLAG vector; FLAG tag) LDSPDRPWNPPTISPALLVVTEGDNATFTCSFSNTSESFVLNWYRISPSNQTDKLAAFPEDRSQPGQDYRFRVTQLPNGRDFHMSVVRARRNDSGTYLCGAISLAPKAQIKESLRAELRVTERRAEVPTAHPSPSPRPAGQFQ | –
11 | – | binds | PD-1 variant No. 41 (CKJ 41), S36P/C69S/L114P, displayed on E. coli (receptor, not shown: NlpA signal peptide / inner membrane anchor of the pMopac12-NlpA-FLAG vector; FLAG tag) LDSPDRPWNPPTFSPALLVVTEGDNATFTCSFSNTPESFVLNWYRMSPSNQTDKLAAFPEDRSQPGQDSRFRVTQLPNGRDFHMSVVRARRNDSGTYLCGAISLAPKAQIKESPRAELRVTERRAEVPTAHPSPSPRPAGQFQ | –
12 | binds | – | PD-1 variant No. 66 (CKJ 66), N9D/N25D/C69S/N92S/A101V, displayed on E. coli (receptor, not shown: NlpA signal peptide / inner membrane anchor of the pMopac12-NlpA-FLAG vector; FLAG tag) LDSPDRPWDPPTFSPALLVVTEGDDATFTCSFSNTSESFVLNWYRMSPSNQTDKLAAFPEDRSQPGQDSRFRVTQLPNGRDFHMSVVRARRSDSGTYLCGVISLAPKAQIKESLRAELRVTERRAEVPTAHPSPSPRPAGQFQ | –
13 | binds | – | PD-1 variant No. 44 (CKJ 44), F13I/M46I/N50S/C69Y/V127A, displayed on E. coli (receptor, not shown: NlpA signal peptide / inner membrane anchor of the pMopac12-NlpA-FLAG vector; FLAG tag) LDSPDRPWNPPTISPALLVVTEGDNATFTCSFSNTSESFVLNWYRISPSSQTDKLAAFPEDRSQPGQDYRFRVTQLPNGRDFHMSVVRARRNDSGTYLCGAISLAPKAQIKESLRAELRVTERRAEAPTAHPSPSPRPAGQFQ | –
14 | binds | – | PD-1 variant No. 49 (CKJ 49), F13L/N25D/C69S/N92S/R137K, displayed on E. coli (receptor, not shown: NlpA signal peptide / inner membrane anchor of the pMopac12-NlpA-FLAG vector; FLAG tag) LDSPDRPWNPPTLSPALLVVTEGDDATFTCSFSNTSESFVLNWYRMSPSNQTDKLAAFPEDRSQPGQDSRFRVTQLPNGRDFHMSVVRARRSDSGTYLCGAISLAPKAQIKESLRAELRVTERRAEVPTAHPSPSPKPAGQFQ | –
15 | binds | – | PD-1 variant No. 50 (CKJ 50), F13L/N25D/C69S/R88K/N92S/A125S, displayed on E. coli (receptor, not shown: NlpA signal peptide / inner membrane anchor of the pMopac12-NlpA-FLAG vector; FLAG tag) LDSPDRPWNPPTLSPALLVVTEGDDATFTCSFSNTSESFVLNWYRMSPSNQTDKLAAFPEDRSQPGQDSRFRVTQLPNGRDFHMSVVKARRSDSGTYLCGAISLAPKAQIKESLRAELRVTERRSEVPTAHPSPSPRPAGQFQ | –
16 | binds | – | PD-1 variant No. 78 (CKJ 78), T12S/S36P/C69S/L114P, displayed on E. coli (receptor, not shown: NlpA signal peptide / inner membrane anchor of the pMopac12-NlpA-FLAG vector; FLAG tag) LDSPDRPWNPPSFSPALLVVTEGDNATFTCSFSNTPESFVLNWYRMSPSNQTDKLAAFPEDRSQPGQDSRFRVTQLPNGRDFHMSVVRARRNDSGTYLCGAISLAPKAQIKESPRAELRVTERRAEVPTAHPSPSPRPAGQFQ | –
17 | – | binds | PD-1 variant CKJ 41G, S36P/C69G/L114P, displayed on E. coli (receptor, Made by QuikChange PCR on CKJ 41; not shown: NlpA signal peptide / inner membrane anchor of the pMopac12-NlpA-FLAG vector; FLAG tag) LDSPDRPWNPPTFSPALLVVTEGDNATFTCSFSNTPESFVLNWYRMSPSNQTDKLAAFPEDRSQPGQDGRFRVTQLPNGRDFHMSVVRARRNDSGTYLCGAISLAPKAQIKESPRAELRVTERRAEVPTAHPSPSPRPAGQFQ | –
18 | – | binds | PD-1_LDSS variant, F13L/N25D/C69S/N92S, displayed on E. coli (receptor, Made by QuikChange PCR on the CKJ 49 vector; not shown: NlpA signal peptide / inner membrane anchor of the pMopac12-NlpA-FLAG vector; FLAG tag) LDSPDRPWNPPTLSPALLVVTEGDDATFTCSFSNTSESFVLNWYRMSPSNQTDKLAAFPEDRSQPGQDSRFRVTQLPNGRDFHMSVVRARRSDSGTYLCGAISLAPKAQIKESLRAELRVTERRAEVPTAHPSPSPRPAGQFQ | –
19 | binds | – | PD-1 variant No. 67 (CKJ 67), N34T/S36P/C69S/L114P, displayed on E. coli (receptor, not shown: NlpA signal peptide / inner membrane anchor of the pMopac12-NlpA-FLAG vector; FLAG tag) LDSPDRPWNPPTFSPALLVVTEGDNATFTCSFSTTPESFVLNWYRMSPSNQTDKLAAFPEDRSQPGQDSRFRVTQLPNGRDFHMSVVRARRNDSGTYLCGAISLAPKAQIKESPRAELRVTERRAEVPTAHPSPSPRPAGQFQ | –
